The test system of series [1] is HeLa Kyoto. Kind of series: solubility in G1/S (NP-40 vs SDS abundance) (log2 ratio); higher = more soluble. As to conditions: cell cycle stage: G1/S.
Series [2] concerns HeLa Kyoto. Description: melting temperature (median over replicates), in situ; higher = more thermally stable.
The subject of series [3] is HeLa Kyoto. Description: solubility change mitosis vs G1/S (difference of NP-40 vs SDS log2 ratios) (log2 ratio difference); higher = more soluble in mitosis.
Series [4] deals with HeLa Kyoto. Kind of series: thermal stability score vs G1/S (z-score of summed log2 fold changes over temperatures); higher = more thermally stable than in G1/S.
[5] abbreviates: cell cycle stage: early G1 (4.5 h after nocodazole release).
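Throughout, for melting temperature (median over replicates), in situ: HeLa Kyoto cells synchronized by double thymidine or nocodazole block, proteins quantified by TMT10plex mass spectrometry, three independent biological replicates.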
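Throughout, for solubility change mitosis vs G1/S (difference of NP-40 vs SDS log2 ratios): synchronized HeLa Kyoto cells (double thymidine block for G1/S, nocodazole release for mitosis), protein amounts in NP-40 versus SDS lysates quantified by mass spectrometry, three biological replicates.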
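Throughout, for solubility in G1/S (NP-40 vs SDS abundance): HeLa Kyoto cells arrested at G1/S by double thymidine block, proteins quantified by TMT10plex mass spectrometry in mild NP-40 versus SDS extracts, three biological replicates.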
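Throughout, for thermal stability score vs G1/S (z-score of summed log2 fold changes over temperatures): synchronized HeLa Kyoto cells, proteins quantified by TMT10plex mass spectrometry, three biological replicates, mitosis taken 0.5 h after nocodazole release, G1/S directly after double thymidine block.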

As for “MEWWASSPLRLWLLLFLLPSAQGRQKESGSKWKVFIDQINRSLENYEPCSSQNCSCYHGVIEEDLTPFRGGISRKMMAEVVRRKLGTHYQITKNRLYRENDCMFPSRCSGVEHFILEVIGRLPDMEMVINVRDYPQVPKWMEPAIPVFSFSKTSEYHDIMYPAWTFWEGGPAVWPIYPTGLGRWDLFREDLVRSAAQWPWKKKNSTAYFRGSRTSPERDPLILLSRKNPKLVDAEYTKNQAWKSMKDTLGKPAAKDVHLVDHCKYKYLFNFRGVAASFRFKHLFLCGSLVFHVGDEWLEFFYPQLKPWVHYIPVKTDLSNVQELLQFVKANDDVAQEIAERGSQFIRNHLQMDDITCYWENLLSEYSKFLSYNVTRRKGYDQIIPKMLKTEL [POGLUT1]”, the “solubility in G1/S (log2)” value in series [1] is 0.28. For the same sequence, the melting temperature came to 52.9 °C in series [2] (cell cycle stage: G1/S) and 54 °C in series [2] (cell cycle stage: mitosis). For the same sequence, in series [3], the “solubility change mitosis (log2)” value was -0.0965. The thermal stability score in series [4] (setting [5]) amounted to 2.61; in series [4] (cell cycle stage: mitosis), 3.25.

On to “MEYMAESTDRSPGHILCCECGVPISPNPANICVACLRSKVDISQGIPKQVSISFCKQCQRYFQPPGTWIQCALESRELLALCLKKIKAPLSKVRLVDAGFVWTEPHSKRLKVKLTIQKEVMNGAILQQVFVVDYVVQSQMCGDCHRVEAKDFWKAVIQVRQKTLHKKTFYYLEQLILKYGMHQNTLRIKEIHDGLDFYYSSKQHAQKMVEFLQCTVPCRYKASQRLISQDIHSNTYNYKSTFSVEIVPICKDNVVCLSPKLAQSLGNMNQICVCIRVTSAIHLIDPNTLQVADIDGSTFWSHPFNSLCHPKQLEEFIVMECSIVQDIKRAAGAGMISKKHTLGEVWVQKTSEMNTDKQYFCRTHLGHLLNPGDLVLGFDLANCNLNDEHVNKMNSDRVPDVVLIKKSYDRTKRQRRRNWKLKELARERENMDTDDERQYQDFLEDLEEDEAIRKNVNIYRDSAIPVESDTDDEGAPRISLAEMLEDLHISQDATGEEGASMLT [NMD3]”, for which, in series [1], the “solubility in G1/S (log2)” value is -0.119. Further, the melting temperature in series [2] (cell cycle stage: G1/S) and in series [2] (cell cycle stage: mitosis) was 52.2 °C in each case. Further, the “solubility change mitosis (log2)” value in series [3] is -0.0927. The thermal stability score in series [4] (setting [5]) is -1.14; in series [4] (cell cycle stage: mitosis) it was -1.18.

In the case of “MFDTTPHSGRSTPSSSPSLRKRLQLLPPSRPPPEPEPGTMVEKGSDSSSEKGGVPGTPSTQSLGSRNFIRNSKKMQSWYSMLSPTYKQRNEDFRKLFSKLPEAERLIVDYSCALQREILLQGRLYLSENWICFYSNIFRWETTISIQLKEVTCLKKEKTAKLIPNAIQICTESEKHFFTSFGARDRCFLLIFRLWQNALLEKTLSPRELWHLVHQCYGSELGLTSEDEDYVSPLQLNGLGTPKEVGDVIALSDITSSGAADRSQEPSPVGSRRGHVTPNLSRASSDADHGAEEDKEEQVDSQPDASSSQTVTPVAEPPSTEPTQPDGPTTLGPLDLLPSEELLTDTSNSSSSTGEEADLAALLPDLSGRLLINSVFHVGAERLQQMLFSDSPFLQGFLQQCKFTDVTLSPWSGDSKCHQRRVLTYTIPISNPLGPKSASVVETQTLFRRGPQAGGCVVDSEVLTQGIPYQDYFYTAHRYCILGLARNKARLRVSSEIRYRKQPWSLVKSLIEKNSWSGIEDYFHHLERELAKAEKLSLEEGGKDARGLLSGLRRRKRPLSWRAHGDGPQHPDPDPCARAGIHTSGSLSSRFSEPSVDQGPGAGIPSALVLISIVICVSLIILIALNVLLFYRLWSLERTAHTFESWHSLALAKGKFPQTATEWAEILALQKQFHSVEVHKWRQILRASVELLDEMKFSLEKLHQGITVSDPPFDTQPRPDDSFS [GRAMD1A]”, in series [1], the “solubility in G1/S (log2)” value is -0.0369. Further, the melting temperature in series [2] (cell cycle stage: G1/S) came out at 50.4 °C; in series [2] (cell cycle stage: mitosis), 51.8 °C. For the same sequence, in series [3], the “solubility change mitosis (log2)” value is -0.0358. Further, the values for the thermal stability score in series [4] (setting [5]) and in series [4] (cell cycle stage: mitosis) were 0.21 and 0.368, respectively.

For the sequence “MFEIKKICCIGAGYVGGPTCSVIAHMCPEIRVTVVDVNESRINAWNSPTLPIYEPGLKEVVESCRGKNLFFSTNIDDAIKEADLVFISVNTPTKTYGMGKGRAADLKYIEACARRIVQNSNGYKIVTEKSTVPVRAAESIRRIFDANTKPNLNLQVLSNPEFLAEGTAIKDLKNPDRVLIGGDETPEGQRAVQALCAVYEHWVPREKILTTNTWSSELSKLAANAFLAQRISSINSISALCEATGADVEEVATAIGMDQRIGNKFLKASVGFGGSCFQKDVLNLVYLCEALNLPEVARYWQQVIDMNDYQRRRFASRIIDSLFNTVTDKKIAILGFAFKKDTGDTRESSSIYISKYLMDEGAHLHIYDPKVPREQIVVDLSHPGVSEDDQVSRLVTISKDPYEACDGAHAVVICTEWDMFKELDYERIHKKMLKPAFIFDGRRVLDGLHNELQTIGFQIETIGKKVSSKRIPYAPSGEIPKFSLQDPPNKKPKV [UGDH]”, the “solubility in G1/S (log2)” value in series [1] is 0.126. The melting temperature was 54 °C in series [2] (cell cycle stage: G1/S) and 54.2 °C in series [2] (cell cycle stage: mitosis). Also, the “solubility change mitosis (log2)” value in series [3] is -0.0998. The thermal stability score turned out to be 0.636 in series [4] (setting [5]) and 0.376 in series [4] (cell cycle stage: mitosis).

For “MFFTCGPNEAMVVSGFCRSPPVMVAGGRVFVLPCIQQIQRISLNTLTLNVKSEKVYTRHGVPISVTGIAQVKIQGQNKEMLAAACQMFLGKTEAEIAHIALETLEGHQRAIMAHMTVEEIYKDRQKFSEQVFKVASSDLVNMGISVVSYTLKDIHDDQDYLHSLGKARTAQVQKDARIGEAEAKRDAGIREAKAKQEKVSAQYLSEIEMAKAQRDYELKKAAYDIEVNTRRAQADLAYQLQVAKTKQQIEEQRVQVQVVERAQQVAVQEQEIARREKELEARVRKPAEAERYKLERLAEAEKSQLIMQAEAEAASVRMRGEAEAFAIGARARAEAEQMAKKAEAFQLYQEAAQLDMLLEKLPQVAEEISGPLTSANKITLVSSGSGTMGAAKVTGEVLDILTRLPESVERLTGVSISQVNHKPLRTA [FLOT1]”, the “solubility in G1/S (log2)” value in series [1] is -0.837. Further, the melting temperature in series [2] (cell cycle stage: G1/S) is 55.3 °C; in series [2] (cell cycle stage: mitosis), 53.7 °C. Further, the “solubility change mitosis (log2)” value in series [3] was determined as 0.121. In addition, the values for the thermal stability score in series [4] (setting [5]) and in series [4] (cell cycle stage: mitosis) were -2.16 and 0.224, respectively.

The values above are taken from the supplement of paper PMC5998384.
